For one test, the target named is T1, MIS12C (WT) (Homo sapiens, UniProt Q6P1K2+Q96IY1+Q9H081+Q9H410).
T1 construct: TEV-cleavable double Strep II (DS) tag (C); made in house; host or cells: High-5 insect cells (baculovirus)
As to the kind of experiment: Isothermal titration calorimetry (ITC), peptide titrated into wild-type MIS12C. The following applies: 20 °C, pH 7.5, wild-type MIS12C. Type of test: binding. In general terms: Isothermal titration calorimetry measures the heat released or taken up as one component is titrated into another.

Another test has as its target T2, MIS12C^Dsn1ΔN (Homo sapiens, UniProt Q6P1K2+Q96IY1+Q9H081+Q9H410, DEL6-113).
T2 construct: all proteins, apart from Knl1, were full length; TEV-cleavable double Strep II (DS) tag (C); made in house; host or cells: High-5 insect cells (baculovirus; Nsl1-Dsn1 virus plus Mis12-Pmf1 virus)
As to the kind of experiment: ITC, peptide titrated into MIS12C with deleted Dsn1^N (residues 6–113). The following applies: ITC Kd ratio, MIS12C^Dsn1ΔN vs MIS12C. Format: binding.

In another test the test system is Wild-type MIS12C. As to the kind of experiment: Analytical size-exclusion chromatography (SEC), CENP-C^1–71 binding to wild-type MIS12C. Also noted: species or system Homo sapiens. The following applies: 4 µM CENP-C^1–71-MBP + 4 µM wild-type MIS12C; 20 mM HEPES pH 7.8, 150 mM NaCl, 0.5 mM TCEP; Superdex S200; SDS-PAGE; at least two repeats. On the procedure:
(§1) Four micromolar of CENP-C^1–71-MBP was mixed with 4 µM of either wild-type MIS12C or three mutants (MIS12C^ΔN-Dsn1, MIS12^Dsn1-W96A R97A R98A, MIS12C^Dsn1-S100D S109D) in a buffer of 20 mM HEPES (pH 7.8), 150 mM NaCl and 0.5 mM TCEP, and 50 µl of the mixture was loaded onto a Superdex S200 size-exclusion column (Cytiva).
(§2) Coloured by pLDDT score. e AlphaFold2 Multimer prediction of the K. lactis MIS12C coloured by subunit with insert highlighting conservation of the auto-inhibitory Dsn1^N mechanism. Source data
For orientation: Size exclusion chromatography separates by hydrodynamic size, large species first.

Test [1] concerns MIS12^Dsn1-W96A R97A R98A. The experiment in a line: Analytical SEC, CENP-C^1–71 binding to MIS12C with WRR linchpin substitutions. To be noted: 4 µM CENP-C^1–71-MBP + 4 µM MIS12^Dsn1-W96A R97A R98A; 20 mM HEPES pH 7.8, 150 mM NaCl, 0.5 mM TCEP; Superdex S200; SDS-PAGE; at least two repeats. Also noted: species or system Homo sapiens. On the procedure: as §1, §2
The next test has as its system MIS12C. The following applies: cited from earlier work. The source says:
We used isothermal titration calorimetry (ITC) to test this structural model by measuring the affinities of MIS12C for both a peptide modeled on CENP-C and a Dsn1^N auto-inhibitory peptide, including structure-guided interface mutants (Fig. 2g and Extended Data Fig. 4). […] Deletion of Dsn1^N (residues 6–113; MIS12C ...

A further test addresses T3, Spc25 (Homo sapiens, UniProt Q9HBM1 1-224).
T3 construct: Spc25, subunit of human NDC80C; coordinates traced D80–N224; Subunit within the KMN network cryo-EM sample; source: High-5 insect cells, expressed and purified as part of NDC80C
T3 sequence (looked up): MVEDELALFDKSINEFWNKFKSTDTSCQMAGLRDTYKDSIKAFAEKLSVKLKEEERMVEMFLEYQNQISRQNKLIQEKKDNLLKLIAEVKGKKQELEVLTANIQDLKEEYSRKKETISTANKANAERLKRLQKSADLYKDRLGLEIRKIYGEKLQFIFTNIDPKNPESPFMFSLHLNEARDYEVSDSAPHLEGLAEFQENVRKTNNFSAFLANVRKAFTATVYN
The experiment in a line: cryo-EM structure; NDC80C, MIS12C and KNL1C mixed 1:1:1 and run on Superose 6 in 20 mM HEPES pH 8.0, 80 mM NaCl, 1 mM MgCl2, 1 mM TCEP; about 1 mg/ml on UltrAuFoil grids; 3.0 Å (MIS12C heads 3.8 Å). The following applies: both partners purified.

A further test addresses T4, Dsn1 (Homo sapiens, UniProt Q9H410 1-356).
T4 construct: Dsn1, subunit of human MIS12C; Subunit within the KMN network cryo-EM sample; residues N-terminal to Arg92 are disordered; source: High-5 insect cells, expressed and purified as part of MIS12C
T4 sequence (looked up): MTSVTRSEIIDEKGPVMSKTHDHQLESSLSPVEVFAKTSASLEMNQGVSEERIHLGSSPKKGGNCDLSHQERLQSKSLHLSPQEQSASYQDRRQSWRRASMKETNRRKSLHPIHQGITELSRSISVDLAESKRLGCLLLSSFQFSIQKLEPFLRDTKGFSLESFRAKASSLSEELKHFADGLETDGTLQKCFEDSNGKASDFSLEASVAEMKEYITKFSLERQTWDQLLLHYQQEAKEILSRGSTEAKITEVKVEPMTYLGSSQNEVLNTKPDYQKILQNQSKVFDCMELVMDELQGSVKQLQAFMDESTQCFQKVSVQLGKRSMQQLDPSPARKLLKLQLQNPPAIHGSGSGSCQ
The test is described as above. The following applies: both partners purified.

In another test the target is T5, Nsl1 (Homo sapiens, UniProt Q96IY1 1-281).
T5 construct: Nsl1, subunit of human MIS12C; Subunit within the KMN network cryo-EM sample; source: High-5 insect cells, expressed and purified as part of MIS12C
T5 sequence (looked up): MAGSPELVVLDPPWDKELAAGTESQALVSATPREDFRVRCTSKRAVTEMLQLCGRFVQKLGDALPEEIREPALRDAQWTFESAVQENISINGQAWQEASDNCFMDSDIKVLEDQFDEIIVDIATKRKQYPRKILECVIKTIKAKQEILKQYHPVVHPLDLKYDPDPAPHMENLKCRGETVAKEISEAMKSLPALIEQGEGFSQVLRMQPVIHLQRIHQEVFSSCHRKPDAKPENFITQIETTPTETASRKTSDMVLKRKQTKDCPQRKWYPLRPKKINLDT
Described as above. The following applies: both partners purified.

Test [2] has as its target T6, MIS12 complex with Dsn1 residues 6–113 deleted (Homo sapiens, UniProt Q9H081 1-205; Q6P1K2 1-205; Q9H410 1-356; Q96IY1 1-281, 6–113 residues deleted).
T6 construct: Mis12, subunit of human MIS12C; Pmf1, subunit of human MIS12C; Nsl1, subunit of human MIS12C; also called MIS12C^Dsn1ΔN; MIS12C^ΔN-Dsn1; source: High-5 insect cells (baculovirus), purified (Strep-Tactin, Resource S, Superdex 200); copies: + + +
T6 sequence (looked up) 1: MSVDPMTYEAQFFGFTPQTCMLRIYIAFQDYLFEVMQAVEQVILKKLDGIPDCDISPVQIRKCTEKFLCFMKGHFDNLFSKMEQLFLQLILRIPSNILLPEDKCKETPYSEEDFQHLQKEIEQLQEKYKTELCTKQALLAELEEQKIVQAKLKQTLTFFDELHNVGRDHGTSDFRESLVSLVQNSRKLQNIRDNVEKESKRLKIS
T6 sequence (looked up) 2: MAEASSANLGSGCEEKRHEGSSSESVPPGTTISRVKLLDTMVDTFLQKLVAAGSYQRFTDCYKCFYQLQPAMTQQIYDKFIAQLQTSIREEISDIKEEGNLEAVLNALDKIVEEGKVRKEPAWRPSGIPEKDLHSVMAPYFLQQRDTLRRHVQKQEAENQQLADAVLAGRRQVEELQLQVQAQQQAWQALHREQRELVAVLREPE
T6 sequence (looked up) 3: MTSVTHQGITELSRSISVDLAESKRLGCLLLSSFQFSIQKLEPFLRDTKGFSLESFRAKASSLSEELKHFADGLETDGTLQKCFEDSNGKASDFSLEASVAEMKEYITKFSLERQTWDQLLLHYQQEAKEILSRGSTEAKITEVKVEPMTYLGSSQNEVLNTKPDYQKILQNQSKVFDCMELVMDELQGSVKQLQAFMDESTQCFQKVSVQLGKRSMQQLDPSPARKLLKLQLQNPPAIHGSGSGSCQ
T6 sequence (looked up) 4: T5 sequence (looked up)
As to the kind of experiment: ITC; peptide in the syringe titrated into the MIS12C variant in the cell; 20 °C; 20 mM HEPES pH 7.5, 100 mM NaCl, 1 mM TCEP; single-site binding model; duplicate or triplicate. The following applies: both partners purified.

In test [3] the target is T7, MIS12 complex with phosphomimetic Dsn1 S100D S109D (Homo sapiens, UniProt Q9H081 1-205; Q6P1K2 1-205; Q9H410 1-356; Q96IY1 1-281, S100D | S109D).
T7 construct: Mis12, subunit of human MIS12C; Pmf1, subunit of human MIS12C; Dsn1, subunit of human MIS12C, S100D S109D; Nsl1, subunit of human MIS12C; also called MIS12C^(Dsn1-S100D S109D); MIS12C^(Dsn1 S100D/S109D); source: High-5 insect cells (baculovirus), purified (Strep-Tactin, Resource S, Superdex 200); copies: + + +
T7 sequence (looked up) 1: T6 sequence (looked up) 1
T7 sequence (looked up) 2: T6 sequence (looked up) 2
T7 sequence (looked up) 3: T4 sequence (looked up) with S100D, S109D
T7 sequence (looked up) 4: T5 sequence (looked up)
The test is described as above. To be noted: both partners purified.

Test [4] has as its target T8, MIS12 complex (Mis12, Pmf1, Dsn1, Nsl1), wild type, full length (Homo sapiens, UniProt Q9H081 1-205; Q6P1K2 1-205; Q9H410 1-356; Q96IY1 1-281).
T8 construct: Mis12, subunit of human MIS12C; Pmf1, subunit of human MIS12C; Dsn1, subunit of human MIS12C; Nsl1, subunit of human MIS12C; The DS tag on Pmf1 is TEV cleavable; a cleavage is not described; also called MIS12C (WT); wild-type MIS12C; source: High-5 insect cells (baculovirus), purified (Strep-Tactin, Resource S, Superdex 200); copies: + + +
T8 sequence (looked up) 1: T6 sequence (looked up) 1
T8 sequence (looked up) 2: T6 sequence (looked up) 2
T8 sequence (looked up) 3: T4 sequence (looked up)
T8 sequence (looked up) 4: T5 sequence (looked up)
Described as above. To be noted: both partners purified.

Numbering of substitutions follows the chain as printed.

Consider “Ac-RRQSWRRASMKETNRRKSLHPIAW-NH2 [Dsn1^92–113]”, for which the “affinity of Dsn1^92–113 for MIS12C, in words” value on MIS12C (WT) is “high-micromolar affinity”. Also, the “enhancement of Dsn1^92–113 binding on deleting Dsn1^N, relative to MIS12C (WT)” value on MIS12C^Dsn1ΔN is on record as 44 fold.
With “CENP-C^1–71: CENP-C residues 1–71 fused to a C-terminal maltose-binding protein (MBP) tag, expressed in E. coli”, the “CENP-C^1–71 binding by SEC, in words” value with Wild-type MIS12C is listed as “only partially bound”; in [1], “binding of almost all CENP-C”.
Turning to “residues 1–21 of CENP-C: residues 1–21 of CENP-C, prior data of ref 10”, the “increase in affinity of MIS12C for residues 1–21 of CENP-C on deleting a ten-residue segment of Dsn1 incorporating Ser100 and Ser109” value in the test on MIS12C was 90 fold.

B1: Spc24 (natural protein, Homo sapiens, UniProt Q8NBT2 1-197, looked up)
chain: MAAFRDIEEVSQGLLSLLGANRAEAQQRRLLGRHEQVVERLLETQDGAEKQLREILTMEKEVAQSLLNAKEQVHQGGVELQQLEAGLQEAGEEDTRLKASLLQLTRELEELKEIEADLERQEKEVDEDTTVTIPSAVYVAQLYHQVSKIEWDYECEPGMVKGIHHGPSVAQPIHLDSTQLSRKFISDYLWSLVDTEW
notes: Spc24, subunit of human NDC80C; coordinates traced G86–W197; Subunit within the KMN network cryo-EM sample; source: High-5 insect cells, expressed and purified as part of NDC80C
As for B1, the binding result with Spc25, with Dsn1 and in the test with Nsl1 was “binds” each time.

B2: CENP-C^2–22 peptide (peptide)
peptide: Ac-AASGLDHLKNGYRRRFCRPSRA-NH2
notes: CENP-C, human, named residues 2-22; also called N-terminal region of CENP-C (residues 2–22); source: synthetic peptide (Biosynth)
As a reminder, the Kd is the free concentration of one partner at which half of the binding sites on the other are occupied at equilibrium, for simple one-to-one binding. Turning to B2, the Kd in [2] was 10.2 nM; in test [3], 20.4 nM; in [4] it was 485 nM.
